According to paper PMC12102759 (2025):

B1: SH3BP2 peptide 408-423 (SH3 domain-binding protein 2), 16-mer library wild type / TNKS ANK (TNKS 12 ANK repeats, residues 174-649) (parent complex)
chain 1: PQLPHLQRSPPDGQSF
chain 2: TGVPAVSGALRELLEACRNGDVSRVKRLVDAANVNAKDMAGRKSSPLHFAAGFGRKDVVEHLLQMGANVHARDDGGLIPLHNACSFGHAEVVSLLLCQGADPNARDNWNYTPLHEAAIKGKIDVCIVLLQHGADPNIRNTDGKSALDLADPSAKAVLTGEYKKDELLEAARSGNEEKLMALLTPLNVNCHASDGRKSTPLHLAAGYNRVRIVQLLLQHGADVHAKDKGGLVPLHNACSYGHYEVTELLLKHGACVNAMDLWQFTPLHEAASKNRVEVCSLLLSHGADPTLVNCHGKSAVDMAPTPELRERLTYEFKGHSLLQAAREADLAKVKKTLALEIINFKQPQSHETALHCAVASLHPKRKQVTELLLRKGANVNEKNKDFMTPLHVAAERAHNDVMEVLHKHGAKMNALDTLGQTALHRAALAGHLQTCRLLLSYGSDPSIISLQGFTAAQMGNEAVQQILSESTPIRTSD

Variants of: B1
Experiment: proteomic peptide phage display deep mutational scan (ProP-PD DMS): M13 P8 16-mer library selected against immobilised GST-tagged bait for four days (rounds), NGS of the eluted pools per day and pseudo-replica; bait immobilised on MaxiSorp plates (10 µg), library pre-cleared on GST, 2 h binding at 4 °C, five washes; one round per day, days 1-4; value from days 2 and 3

Variant	screen value
chain 1 PQLPHLQRSPPDGQSW	0.000272 average fractional NGS count over selection days 2 and 3 (reads of this peptide / all reads for the bait, averaged over …
chain 1 PFLPHLQRSPPDGQSF	0.000172 average fractional NGS count over selection days 2 and 3 (reads of this peptide / all reads for the bait, averaged over …
chain 1 PSLPHLQRSPPDGQSF	0.00172 average fractional NGS count over selection days 2 and 3 (reads of this peptide / all reads for the bait, averaged over …
chain 1 PGLPHLQRSPPDGQSF	0.000233 average fractional NGS count over selection days 2 and 3 (reads of this peptide / all reads for the bait, averaged over …
chain 1 PQLPSLQRSPPDGQSF	0.000337 average fractional NGS count over selection days 2 and 3 (reads of this peptide / all reads for the bait, averaged over …
chain 1 PQLPHLQRFPPDGQSF	0.00032 average fractional NGS count over selection days 2 and 3 (reads of this peptide / all reads for the bait, averaged over …
chain 1 PQLPHLQRSPPDGQLF	0.00151 average fractional NGS count over selection days 2 and 3 (reads of this peptide / all reads for the bait, averaged over …
chain 1 PQLPHLQRTPPDGQSF	0.00132 average fractional NGS count over selection days 2 and 3 (reads of this peptide / all reads for the bait, averaged over …
chain 1 PQLPHLQRSPPDGISF	0.000236 average fractional NGS count over selection days 2 and 3 (reads of this peptide / all reads for the bait, averaged over …
chain 1 PQLPHLQRSSPDGQSF	0.000405 average fractional NGS count over selection days 2 and 3 (reads of this peptide / all reads for the bait, averaged over …
chain 1 PQLEHLQRSPPDGQSF	0.000494 average fractional NGS count over selection days 2 and 3 (reads of this peptide / all reads for the bait, averaged over …
chain 1 PQLPHLQRKPPDGQSF	0.000447 average fractional NGS count over selection days 2 and 3 (reads of this peptide / all reads for the bait, averaged over …
chain 1 PQLPHLQRSPPDGQSY	0.011 average fractional NGS count over selection days 2 and 3 (reads of this peptide / all reads for the bait, averaged over …
chain 1 PQLPHLQRVPPDGQSF	0.0149 average fractional NGS count over selection days 2 and 3 (reads of this peptide / all reads for the bait, averaged over …
chain 1 PQLPHNQRSPPDGQSF	0.000459 average fractional NGS count over selection days 2 and 3 (reads of this peptide / all reads for the bait, averaged over …
chain 1 PQLMHLQRSPPDGQSF	0.00173 average fractional NGS count over selection days 2 and 3 (reads of this peptide / all reads for the bait, averaged over …
chain 1 PQLPHLQRSPPDGQDF	0.000182 average fractional NGS count over selection days 2 and 3 (reads of this peptide / all reads for the bait, averaged over …
chain 1 PQLPHWQRSPPDGQSF	0.000131 average fractional NGS count over selection days 2 and 3 (reads of this peptide / all reads for the bait, averaged over …
chain 1 PQLSHLQRSPPDGQSF	0.000214 average fractional NGS count over selection days 2 and 3 (reads of this peptide / all reads for the bait, averaged over …

Variant	screen value
chain 1 PQLPHLQRAPPDGQSF	0.000813 average fractional NGS count over selection days 2 and 3 (reads of this peptide / all reads for the bait, averaged over …
chain 1 PQLPHLIRSPPDGQSF	0.000144 average fractional NGS count over selection days 2 and 3 (reads of this peptide / all reads for the bait, averaged over …
chain 1 PQLPGLQRSPPDGQSF	0.000153 average fractional NGS count over selection days 2 and 3 (reads of this peptide / all reads for the bait, averaged over …
chain 1 PQLPHLQRSPPDGQHF	0.000369 average fractional NGS count over selection days 2 and 3 (reads of this peptide / all reads for the bait, averaged over …
chain 1 PLLPHLQRSPPDGQSF	0.00153 average fractional NGS count over selection days 2 and 3 (reads of this peptide / all reads for the bait, averaged over …
chain 1 PQLPHLTRSPPDGQSF	0.000465 average fractional NGS count over selection days 2 and 3 (reads of this peptide / all reads for the bait, averaged over …
chain 1 PQLPHLQRSPPSGQSF	0.000143 average fractional NGS count over selection days 2 and 3 (reads of this peptide / all reads for the bait, averaged over …
chain 1 PQLPHLQRSPPDGYSF	0.000878 average fractional NGS count over selection days 2 and 3 (reads of this peptide / all reads for the bait, averaged over …
chain 1 PQLPHLQRSPPDGQSR	0.00135 average fractional NGS count over selection days 2 and 3 (reads of this peptide / all reads for the bait, averaged over …
chain 1 PDLPHLQRSPPDGQSF	0.00112 average fractional NGS count over selection days 2 and 3 (reads of this peptide / all reads for the bait, averaged over …
chain 1 PQLPHLQRSPPDGQTF	0.000479 average fractional NGS count over selection days 2 and 3 (reads of this peptide / all reads for the bait, averaged over …
chain 1 PQLPHLQRSPPMGQSF	0.000556 average fractional NGS count over selection days 2 and 3 (reads of this peptide / all reads for the bait, averaged over …
chain 1 PQLPHLQRSGPDGQSF	0.00637 average fractional NGS count over selection days 2 and 3 (reads of this peptide / all reads for the bait, averaged over …
chain 1 PQLPHLQRSPPDGQAF	0.00154 average fractional NGS count over selection days 2 and 3 (reads of this peptide / all reads for the bait, averaged over …
chain 1 PQLPHLQRPPPDGQSF	0.000122 average fractional NGS count over selection days 2 and 3 (reads of this peptide / all reads for the bait, averaged over …
chain 1 PELPHLQRSPPDGQSF	0.000696 average fractional NGS count over selection days 2 and 3 (reads of this peptide / all reads for the bait, averaged over …
chain 1 PMLPHLQRSPPDGQSF	0.000169 average fractional NGS count over selection days 2 and 3 (reads of this peptide / all reads for the bait, averaged over …
chain 1 PQLWHLQRSPPDGQSF	0.000229 average fractional NGS count over selection days 2 and 3 (reads of this peptide / all reads for the bait, averaged over …
chain 1 PQLPRLQRSPPDGQSF	0.00137 average fractional NGS count over selection days 2 and 3 (reads of this peptide / all reads for the bait, averaged over …

Variant	screen value
chain 1 PQLPHLDRSPPDGQSF	0.00248 average fractional NGS count over selection days 2 and 3 (reads of this peptide / all reads for the bait, averaged over …
chain 1 PQLPHLQRSKPDGQSF	0.00107 average fractional NGS count over selection days 2 and 3 (reads of this peptide / all reads for the bait, averaged over …
chain 1 PQLPHLQRSHPDGQSF	0.0139 average fractional NGS count over selection days 2 and 3 (reads of this peptide / all reads for the bait, averaged over …
chain 1 PQLPHLQRSPPDGGSF	0.000379 average fractional NGS count over selection days 2 and 3 (reads of this peptide / all reads for the bait, averaged over …
chain 1 PQLPHLQRSPPDGQYF	0.000762 average fractional NGS count over selection days 2 and 3 (reads of this peptide / all reads for the bait, averaged over …
chain 1 PQLPHLQRMPPDGQSF	0.00474 average fractional NGS count over selection days 2 and 3 (reads of this peptide / all reads for the bait, averaged over …
chain 1 PQLPHLKRSPPDGQSF	0.000537 average fractional NGS count over selection days 2 and 3 (reads of this peptide / all reads for the bait, averaged over …
chain 1 PQMPHLQRSPPDGQSF	0.000961 average fractional NGS count over selection days 2 and 3 (reads of this peptide / all reads for the bait, averaged over …
chain 1 PQLPHLQRSPPDGQSH	0.00294 average fractional NGS count over selection days 2 and 3 (reads of this peptide / all reads for the bait, averaged over …
chain 1 PQLPHLQRSPPDGQPF	0.000545 average fractional NGS count over selection days 2 and 3 (reads of this peptide / all reads for the bait, averaged over …
chain 1 PQLVHLQRSPPDGQSF	0.000162 average fractional NGS count over selection days 2 and 3 (reads of this peptide / all reads for the bait, averaged over …
chain 1 PQLPHLQRSPPDGQWF	0.000372 average fractional NGS count over selection days 2 and 3 (reads of this peptide / all reads for the bait, averaged over …
chain 1 PQLPHLQRWPPDGQSF	0.000206 average fractional NGS count over selection days 2 and 3 (reads of this peptide / all reads for the bait, averaged over …
chain 1 PQLPHLLRSPPDGQSF	0.00476 average fractional NGS count over selection days 2 and 3 (reads of this peptide / all reads for the bait, averaged over …
chain 1 PQLPHLYRSPPDGQSF	0.00125 average fractional NGS count over selection days 2 and 3 (reads of this peptide / all reads for the bait, averaged over …
chain 1 PQLPHLQRSPPDGRSF	0.000901 average fractional NGS count over selection days 2 and 3 (reads of this peptide / all reads for the bait, averaged over …
chain 1 PQLPHVQRSPPDGQSF	0.000569 average fractional NGS count over selection days 2 and 3 (reads of this peptide / all reads for the bait, averaged over …
chain 1 PQLPHLQRSVPDGQSF	0.00118 average fractional NGS count over selection days 2 and 3 (reads of this peptide / all reads for the bait, averaged over …
